Experiment [1] deals with SpyCatcher-mi3 nanoparticle. Kind of experiment: SDS-PAGE of the covalent SpyTag-SpyCatcher conjugate + dynamic light scattering; cPfCSP and SpyCatcher-mi3 mixed and allowed to react overnight at 4°C; conjugate band at ~65 kDa; diameter 48 nm against 34 nm. To be noted: scale: cPfCSP molecules per SpyCatcher-mi3 nanoparticle.
For experiment [2], the target named is T1, full-length recombinant PfCSP (Plasmodium falciparum, strain of the …, UniProt Q7K740).
T1 construct: Plasmodium falciparum circumsporozoite protein; source: E. coli, recombinant, provided by Gennova (Pune, India)
Description: ELISA; competition: 5 ng/mL mAb 2A10 pre-incubated with 0.5, 5 or 50 μg/mL of T1 or B3 peptide without cysteines, then allowed to bind to plates coated with PfCSP; signal normalised to that without peptide. The conditions noted are these: both partners purified. In general terms: ELISA stands for enzyme-linked immunosorbent assay.

The target in experiment [3] is T2, T1 synthetic peptide (without cysteine residues) (Plasmodium falciparum, synthetic peptide).
T2 construct: source: synthetic peptide
T2 chain: DPNANPNVDPNANPNV
The description is as above. To be noted: both partners purified.

The target in experiment [4] is T3, B3 synthetic peptide, (NANP)3 (without cysteine residues) (Plasmodium falciparum, synthetic peptide).
T3 construct: three NANP repeats of the major repeat region of Plasmodium falciparum circumsporozoite protein; written out from the printed formula (NANP)3; source: synthetic peptide
T3 chain: NANPNANPNANP
The experiment is described as above. To be noted: both partners purified.

T1 sequence (Q7K740 19-374): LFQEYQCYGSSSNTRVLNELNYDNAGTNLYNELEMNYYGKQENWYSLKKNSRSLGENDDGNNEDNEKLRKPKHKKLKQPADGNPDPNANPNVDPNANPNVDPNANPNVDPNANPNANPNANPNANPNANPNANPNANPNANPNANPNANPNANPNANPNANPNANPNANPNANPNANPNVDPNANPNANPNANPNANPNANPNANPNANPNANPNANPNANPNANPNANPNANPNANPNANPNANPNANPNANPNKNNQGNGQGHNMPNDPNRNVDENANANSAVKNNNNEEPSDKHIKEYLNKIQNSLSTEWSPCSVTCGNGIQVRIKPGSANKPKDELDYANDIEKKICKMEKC

Turning to “chimeric PfCSP (cPfCSP) with C-terminal GPGPG spacer, SpyTag and 6x His-tag (from UniProt Q7K740 82-104; Q7K740 311-340; Q7K740 341-397)”, the stoichiometry N (usually the number of molecules, sites or subunits per partner or assembly) in experiment [1] was 3.2.

B1: 2A10 antibody (antibody, V domains shown)
VH: QIQLVQSGPELKKPGETVKISCKASGYTFTNYGINWVKQAPGKGLKWMGWINTITEEPTFAEEFTGRFAFSLETSASTAYLQINNLKNEDTATYFCARGSEFGRLVYWGQGASVTVSS
VL: DIQMTQTTSSLSASLGDRVTISCSASQGISNYLNWYQQKPDGTVKLLIFYTSTLYSGVPSRFSGSGSGTDYSLTISNLEPEDIATYYCQQYSRFPYVFGGGTKLEIK
notes: heavy chain gene cloned into the TGEX-HC vector; light chain gene cloned into the TGEX-LC vector; treated as one molecule; also called mAb 2A10; monoclonal antibody 2A10; source: HEK293F, transfected, purified (MabSelect SuRe)
As for B1, the binding result in experiment [2], in experiment [3] and in experiment [4] was “binds” throughout.

(Values after PMC10354751 (Bioengineering & Translational Medicine, 2023).)
